Results as given in the supplement of paper PMC9233669.
This sample holds only a part of the variants without activity.

Columns and labels:
biotinyl-Phe-oxazolone = experiment: self-aminoacylation, catalytic enhancement (BFO) (fold over background); higher = more active; k-Seq, kA / k0A0; sequences stand for … in GGGAAUGGAUCCACAUCUACGAAUUC…UUCACUGCAGACUUGACGAAGCUG
How it was run: (§1)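 Mutagenized RNA pools (0.43 μM; 21-nt variable region) were treated with 2–1250 μM of each biotinyl-aminoacyl-oxazolone. Conditions were 50 μL HEPES/NaCl/KCl/MgCl2/CaCl2 buffer, 5% acetonitrile, pH 6.9–7.0, room temperature, 90 minutes. Catalytic enhancement, the median kA relative to the uncatalyzed rate, was derived from streptavidin capture, qPCR and Illumina sequencing.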

biotinyl-Ile-oxazolone = experiment: self-aminoacylation, catalytic enhancement (BIO) (fold over background); higher = more active; k-Seq, kA / k0A0; sequences stand for … in GGGAAUGGAUCCACAUCUACGAAUUC…UUCACUGCAGACUUGACGAAGCUG
How it was run: as §1

biotinyl-Met-oxazolone = experiment: self-aminoacylation, catalytic enhancement (BMO) (fold over background); higher = more active; k-Seq, kA / k0A0; sequences stand for … in GGGAAUGGAUCCACAUCUACGAAUUC…UUCACUGCAGACUUGACGAAGCUG
How it was run: as §1

biotinyl-Val-oxazolone = experiment: self-aminoacylation, catalytic enhancement (BVO) (fold over background); higher = more active; k-Seq, kA / k0A0; sequences stand for … in GGGAAUGGAUCCACAUCUACGAAUUC…UUCACUGCAGACUUGACGAAGCUG
How it was run: as §1

biotinyl-Leu-oxazolone = experiment: self-aminoacylation, catalytic enhancement (BLO) (fold over background); higher = more active; k-Seq, kA / k0A0; sequences stand for … in GGGAAUGGAUCCACAUCUACGAAUUC…UUCACUGCAGACUUGACGAAGCUG
How it was run: as §1

biotinyl-Trp-oxazolone = experiment: self-aminoacylation, catalytic enhancement (BWO) (fold over background); higher = more active; k-Seq, kA / k0A0; sequences stand for … in GGGAAUGGAUCCACAUCUACGAAUUC…UUCACUGCAGACUUGACGAAGCUG
How it was run: as §1

Row | Sequence | self-aminoacylation (biotinyl-Phe-oxazolone) | self-aminoacylation (biotinyl-Ile-oxazolone) | self-aminoacylation (biotinyl-Met-oxazolone) | self-aminoacylation (biotinyl-Val-oxazolone) | self-aminoacylation (biotinyl-Leu-oxazolone) | self-aminoacylation (biotinyl-Trp-oxazolone)
1 | AUUAGCCUGGUCAUCGCGUGA [Fam2.1 aminoacylation ribozyme variant] | 165 | 10.3 | 21.7 | 11.2 | 22.3 | 22.6
2 | AUUAGCCUGGUCAUCUAGUGA [Fam2.1 aminoacylation ribozyme variant] | 19.2 | 3.39 | 4.79 | 2.98 | 5.06 | 6.32
3 | AUUAGCCUGGUCAUGGAGUGA [Fam2.1 aminoacylation ribozyme variant] | 17.2 | 2.77 | 4.09 | 2.72 | 4.02 | 4.92
4 | AUUAGCCUGUUCAUCGAGUGA [Fam2.1 aminoacylation ribozyme variant] | 18 | 3.04 | 5.64 | 3.27 | 5.5 | 7.22
5 | AUUAGUCUGGUCAUCGAGUGA [Fam2.1 aminoacylation ribozyme variant] | 13 | 3.35 | 3.43 | 2.62 | 4.42 | 3.94
6 | AUUAUCCCGGUCAUCGAGUGA [Fam2.1 aminoacylation ribozyme variant] | 61.2 | 4.32 | 8.46 | 4.35 | 10.6 | 11
7 | AUUAUCCUAGUCAUCGAGUGA [Fam2.1 aminoacylation ribozyme variant] | 26.4 | 3.35 | 5.97 | 3.15 | 6.53 | 8.1
8 | AUUAUCCUGAUCAUCGAGUGA [Fam2.1 aminoacylation ribozyme variant] | 60 | 4.92 | 11.1 | 4.92 | 11.4 | 11.8
9 | AUUAUCCUGGUCAUAGAGUGA [Fam2.1 aminoacylation ribozyme variant] | 59 | 4.58 | 9.86 | 4.11 | 10.1 | 11.7
10 | AUUAUCCUGGUCAUCGAGAGA [Fam2.1 aminoacylation ribozyme variant] | 1.15 | 1.08 | 0.869 | 0.989 | 0.847 | 0.862
11 | AUUAUCCUGGUCAUCGUGUGA [Fam2.1 aminoacylation ribozyme variant] | 28.6 | 2.15 | 3.54 | 2.05 | 3.83 | 5.91
12 | AUUAUCCUGUUCAUCGAGUGA [Fam2.1 aminoacylation ribozyme variant] | 22.6 | 2.87 | 5.98 | 3 | 6 | 7.47
13 | AUUAUCCUUGUCAUCGAGUGA [Fam2.1 aminoacylation ribozyme variant] | 25.2 | 3.49 | 6.66 | 3.57 | 6.7 | 8.67
14 | AUUCAACAAGGUCAUCGGGUG [Fam2.2 aminoacylation ribozyme variant] | 57.7 | 4.09 | 7.02 | 3.32 | 7.96 | 5.71
15 | AUUCAACUAGGGCAUCGGGUG [Fam2.2 aminoacylation ribozyme variant] | 22.4 | 2.7 | 3.16 | 2.88 | 4.3 | 2.99
16 | AUUCAACUAGGUCAUCGCGUG [Fam2.2 aminoacylation ribozyme variant] | 65.2 | 5.91 | 9.12 | 5.81 | 13.6 | 9.5
17 | AUUCAACUAGGUCAUCGGGUA [Fam2.2 aminoacylation ribozyme variant] | 7.29 | 1.78 | 2.01 | 2.19 | 2.16 | 2.89
18 | AUUCAACUAGGUCAUCGGGUC [Fam2.2 aminoacylation ribozyme variant] | 1.77 | 1.02 | 1.14 | 0.979 | 1.15 | 1.22
19 | AUUCAACUAGGUCAUCGGGUU [Fam2.2 aminoacylation ribozyme variant] | 4.65 | 1.5 | 1.91 | 1.66 | 1.95 | 1.8
20 | AUUCAACUAGGUCAUCGGUUG [Fam2.2 aminoacylation ribozyme variant] | 0.677 | 0.952 | 0.933 | 0.963 | 0.889 | 0.843
21 | AUUCAACUAGGUCCUCGGGUG [Fam2.2 aminoacylation ribozyme variant] | 35.7 | 3.44 | 5.22 | 3.32 | 7.66 | 5.55
22 | AUUCAAUUAGGUCAUCGGGUG [Fam2.2 aminoacylation ribozyme variant] | 42.1 | 3.56 | 6 | 3.44 | 7.25 | 5.33

Row | Sequence | self-aminoacylation (biotinyl-Phe-oxazolone) | self-aminoacylation (biotinyl-Ile-oxazolone) | self-aminoacylation (biotinyl-Met-oxazolone) | self-aminoacylation (biotinyl-Val-oxazolone) | self-aminoacylation (biotinyl-Leu-oxazolone) | self-aminoacylation (biotinyl-Trp-oxazolone)
23 | AUUCACAUAGGACAUCGGGUG [Fam2.2 aminoacylation ribozyme variant] | 17.7 | 2.84 | 3.84 | 3.22 | 4.24 | 3.93
24 | AUUCACAUAGGUCAACGGGUG [Fam2.2 aminoacylation ribozyme variant] | 28.8 | 2.85 | 4.31 | 2.81 | 5.9 | 4.39
25 | AUUCACAUAGGUCAUAGGGUG [Fam2.2 aminoacylation ribozyme variant] | 2.85 | 1.55 | 2.17 | 1.54 | 2.3 | 1.66
26 | AUUCACAUAGGUCAUCGGGCG [Fam2.2 aminoacylation ribozyme variant] | 6.68 | 2.05 | 2.5 | 2.33 | 3.11 | 2.3
27 | AUUCACAUAGGUCAUUGGGUG [Fam2.2 aminoacylation ribozyme variant] | 29.1 | 2.74 | 4.35 | 3.23 | 5.11 | 4.51
28 | AUUCACAUAGGUCUUCGGGUG [Fam2.2 aminoacylation ribozyme variant] | 39.4 | 4.26 | 4.21 | 4.59 | 5.35 | 5.51
29 | AUUCACAUAGGUGAUCGGGUG [Fam2.2 aminoacylation ribozyme variant] | 20.5 | 3.05 | 3.4 | 3.14 | 3.56 | 3.79
30 | AUUCACAUAGUUCAUCGGGUG [Fam2.2 aminoacylation ribozyme variant] | 19.2 | 2.27 | 2.76 | 2.3 | 3.48 | 2.42
31 | AUUCACAUGGGUCAUCGGGUG [Fam2.2 aminoacylation ribozyme variant] | 70.4 | 5.6 | 9.66 | 5.96 | 11.6 | 8.84
32 | AUUCACCAAAGUCAUCGGGUG [Fam2.2 aminoacylation ribozyme variant] | 110 | 9.57 | 15.3 | 8.23 | 19.5 | 13.6
33 | AUUCACCAAGGUCACCGGGUG [Fam2.2 aminoacylation ribozyme variant] | 55.5 | 5.1 | 8.25 | 6.12 | 9.86 | 5.09
34 | AUUCACCAAGGUCAUCGAGUG [Fam2.2 aminoacylation ribozyme variant] | 14.4 | 2.27 | 4.1 | 2.23 | 4.52 | 2.57
35 | AUUCACCAAGGUCAUCGGGCG [Fam2.2 aminoacylation ribozyme variant] | 16 | 3.24 | 4.07 | 3.64 | 4.59 | 3.82
36 | AUUCACCAAGGUCUUCGGGUG [Fam2.2 aminoacylation ribozyme variant] | 37.2 | 4.41 | 5.94 | 4.41 | 6.3 | 4.45
37 | AUUCACCCAGGUCAACGGGUG [Fam2.2 aminoacylation ribozyme variant] | 19.7 | 1.96 | 3.24 | 2.53 | 4.29 | 3.81
38 | AUUCACCCAGGUCAUCGGGGG [Fam2.2 aminoacylation ribozyme variant] | 11.7 | 1.86 | 2.1 | 1.6 | 2.17 | 1.92
39 | AUUCACCGAAGUCAUCGGGUG [Fam2.2 aminoacylation ribozyme variant] | 152 | 9.89 | 17.6 | 9.73 | 23.7 | 15.1
40 | AUUCACCGAGGACAUCGGGUG [Fam2.2 aminoacylation ribozyme variant] | 35.9 | 3.59 | 5.56 | 3.78 | 6.02 | 5.74
41 | AUUCACCGAGGUCAGCGGGUG [Fam2.2 aminoacylation ribozyme variant] | 38.8 | 5.26 | 5.57 | 4.67 | 6.67 | 6.61
42 | AUUCACCGAGGUCAUAGGGUG [Fam2.2 aminoacylation ribozyme variant] | 7.43 | 1.71 | 2.29 | 1.91 | 3.17 | 2.21
43 | AUUCACCGAGGUCAUCCGGUG [Fam2.2 aminoacylation ribozyme variant] | 80.2 | 7.31 | 9.07 | 8.04 | 12.4 | 10.1
